This is an account of results in PMC9274624.

Holding throughout (assay): SPR
(Surface plasmon resonance follows binding to a sensor surface in real time, without labels.)

For experiment [1], the target named is sheep ACE2 extracellular domain (residues 1-740) fused with the Fc domain of mouse IgG (sheep).
Experiment [2] addresses big-eared horseshoe bat ACE2 extracellular domain (residues 1-740) fused with the Fc domain of mouse IgG (big-eared horseshoe bat).
Experiment [3] deals with alpaca ACE2 extracellular domain (residues 1-740) fused with the Fc domain of mouse IgG (alpaca).
For experiment [4], the target named is mink ACE2 extracellular domain (residues 1-740) fused with the Fc domain of mouse IgG (mink).
Experiment [5] concerns the target horse ACE2 extracellular domain (residues 1-740) fused with the Fc domain of mouse IgG (horse) (UniProt F6V9L3).
In experiment [6] the target is monkey ACE2 extracellular domain (residues 1-740) fused with the Fc domain of mouse IgG (monkey) (UniProt F7AH40).
Experiment [7] deals with fulvous fruit bat ACE2 extracellular domain (residues 1-740) fused with the Fc domain of mouse IgG (fulvous fruit bat).
The target in experiment [8] is wild Bactrian camel ACE2 extracellular domain (residues 1-740) fused with the Fc domain of mouse IgG (wild Bactrian camel).
Experiment [9] addresses pig ACE2 extracellular domain (residues 1-740) fused with the Fc domain of mouse IgG (pig) (UniProt K7GLM4).
Experiment [10] has as its target raccoon dog ACE2 extracellular domain (residues 1-740) fused with the Fc domain of mouse IgG (raccoon dog) (UniProt B4XEP4).
Experiment [11] addresses fox ACE2 extracellular domain (residues 1-740) fused with the Fc domain of mouse IgG (fox).
Experiment [12] addresses goat ACE2 extracellular domain (residues 1-740) fused with the Fc domain of mouse IgG (goat).
Experiment [13] deals with rabbit ACE2 extracellular domain (residues 1-740) fused with the Fc domain of mouse IgG (rabbit) (UniProt G1TEF4).

pKd: −log10 of the molar value.

For the substance “SARS-CoV-2 Delta RBD (residues 319-541) (from UniProt P0DTC2 319-541) (domain or fragment)”, the pKd – broadly, the Kd on a negative log10 scale, so that one unit is a factor of ten – in experiment [1] is 7.22; in experiment [2], 7.30; in experiment [3], 6.42; in [4] it was 6.54; in experiment [5], 7.10; in [6], 7.78. Further, the pKd was 6.70 in experiment [7]; 6.63 in experiment [8]; 7.19 in experiment [9]; 6.91 in experiment [10]; 7.45 in experiment [11]; 7.18 in [12]. The substance also showed a pKd in experiment [13] of 7.23.
